# Source: US10428327B2, “Compositions and methods for enhancing homologous recombination” (LIFE TECHNOLOGIES CORPORATION, priority 2016, dated 2019)
# Oligonucleotides are written 5' to 3', each unit as a sugar letter and its base; * is a phosphorothioate linkage, no mark a phosphodiester; rarer units and linkages stand in square brackets, end groups in braces. Plain capitals give the bases only. d = 2'-deoxy (DNA); {P} = phosphate
# B1: 6-3′: dsDNA donor with 6 nucleotide 3′ overhangs, annealed SEQ ID 79 and 80 (nucleic acid)
# chain 1: GACTACAAAGACGATGACGACAAGAATTCTTACGGCG
# chain 2: AAGAATTCTTGTCGTCATCGTCTTTGTAGTCGGTCAG
# modifications: chemistry not fully specified
# B2: 15-5′: dsDNA donor with 15 nucleotide 5′ overhangs, annealed SEQ ID 81 and 82 (nucleic acid)
# chain 1: dG*dT*dGdAdCdCdAdCdCdCdTdGdAdCdCdGdAdCdTdAdCdAdAdAdGdAdCdGdAdTdGdAdCdGdAdCdAdAdGdAdAdTdTdC*dT*dT
# chain 2: dG*dC*dAdCdTdGdCdAdCdGdCdCdGdTdAdAdGdAdAdTdTdCdTdTdGdTdCdGdTdCdAdTdCdGdTdCdTdTdTdGdTdAdG*dT*dC
# modifications: Two annealed DNA oligonucleotides with 5' overhangs, further chemistry not fully specified
# B3: 6-5′: dsDNA donor with 6 nucleotide 5′ overhangs, annealed SEQ ID 77 and 78 (nucleic acid)
# chain 1: dC*dT*dGdAdCdCdGdAdCdTdAdCdAdAdAdGdAdCdGdAdTdGdAdCdGdAdCdAdAdGdAdAdTdTdC*dT*dT
# chain 2: dC*dG*dCdCdGdTdAdAdGdAdAdTdTdCdTdTdGdTdCdGdTdCdAdTdCdGdTdCdTdTdTdGdTdAdG*dT*dC
# modifications: Two annealed DNA oligonucleotides with 5' overhangs, further chemistry not fully specified
# B4: PS80: phosphorothioate 80-mer ssDNA, BFP point mutation, SEQ ID 49 (nucleic acid)
# DNA: {P}-dG*dC*dTdGdCdCdCdGdTdGdCdCdCdTdGdGdCdCdCdAdCdCdCdTdCdGdTdGdAdCdCdAdCdCdCdTdGdAdCdCdTdAdCdGdGdCdGdTdGdCdAdGdTdGdCdTdTdCdAdGdCdCdGdCdTdAdCdCdCdCdGdAdCdCdAdCdAdT*dG*dA
# B5: blunt: blunt-end dsDNA donor, FLAG tag plus EcoRI site, annealed SEQ ID 75 and 76 (nucleic acid)
# chain 1: dG*dA*dCdTdAdCdAdAdAdGdAdCdGdAdTdGdAdCdGdAdCdAdAdGdAdAdTdTdC*dT*dT
# chain 2: dA*dA*dGdAdAdTdTdCdTdTdGdTdCdGdTdCdAdTdCdGdTdCdTdTdTdGdTdAdG*dT*dC
# modifications: annealed double-stranded DNA donor, further chemistry not fully specified
# How the values were obtained:
# Format in all cases: cell-based
# [1] = tested on: eBFP locus in HEK293 cells expressing eBFP; assay: Genomic cleavage and detection assay at eBFP locus after Cas9 RNP and FLAG/EcoRI donor; conditions: sequential delivery, 48 hours post transfection
# Excerpt: (§1) FIG. 11. Insertion of a FLAG tag along with an EcoRI site using dsDNA donor with single-stranded overhangs. (A) Various donor DNA molecules containing a 30-base FLAG tag along with an EcoRI site were designed and synthesized, including single-stranded DNA donor (ssDNA), blunt-end dsDNA donor (blunt), dsDNA donor with 5′ overhang (5′), dsDNA donor with 3′ overhang (3′). The length of overhangs varied from 6 nucleotides (6), 15 nucleotides (15) to 30 nucleotides (30). The 3′ and 5′ ends of the oligonucleotides harbored two consecutive phosphorothioate-modified bases (Table 4). The short dsDNA donors with and without overhangs were prepared by annealing two short DNA oligonucleotides. […] At 48 hours post transfection, the eBFP locus was PCR-amplified. The resulting PCR fragments were analyzed by the genomic cleavage and detection assays to determine the percentage of Indel or subjected to restriction digestion with EcoRI to determine the percentage of digestion. (B) Length of 3′ overhang. […] Alternatively, a dsDNA donor with 30-base 3′ overhang but without phosphorothioate modification (30-3′n) was used. The percentage of digestion with EcoRI was determined at 48 hours post transfection. (C) Dose effect. […] The eBFP loci were PCR-amplified. The resulting PCR fragments were analyzed by EcoRI digest. (D) Sequencing verification. The PCR fragments were cloned into E. coli and 192 clones were randomly picked for sequencing. The relative percentage of wild type (wt), NHEJ, and HDR clones derived from either ssDNA donor (ssDNA) or dsDNA with 3′ overhangs (3′ overhang) was plotted. The white rectangles represented the population of clones that contained the insert but with a point mutation. Examples of edited clones were shown in (E) (not representing the actual percentages of NHEJ and HDR). The underlined sequences represented the FLAG tag along with an RI site. FIG. 11 discloses SEQ ID NOs: 15-24, respectively, from top to bottom.
# The genomic cleavage efficiency was measured by GENEART® Genomic Cleavage Detection kit according to manufacturer's instructions. The primer sequences for PCR amplification of each genomic locus are described in Table 4. Cells were analyzed at 48 to 72 hours post transfection. The cleavage efficiencies were calculated based on the relative agarose gel band intensity, which were quantified using an […]® gel documentation system running […]®, Version 3.4.0.0. ProteinSimple (San Jose, Calif., USA).
# To extend this concept, we hypothesized that a dsDNA donor harboring single-stranded overhangs would facilitate HDR to higher levels than with blunt ends. To test this hypothesis, we designed and generated a series of donor molecules with either blunt end, 5′ end protrusion or 3′ end protrusion by annealing two small single-stranded oligonucleotides. A single-stranded DNA donor was used as a control. The 5′ and 3′ ends of oligonucleotides were protected with two consecutive phosphorothioate-modified bases (Table 3). For proof of concept, we inserted a 30 nucleotide FLAG epitope tag along with an EcoRI site into the BFP gene stably expressed in HEK293 cells. The gRNA was designed to target the top DNA strand. The length of single-stranded overhangs varied from 6 nucleotides to 30 nucleotides. The oligonucleotides were denatured and re-annealed prior to transfection forming the structures described in FIG. 11A. […] Co-delivery of Cas9 RNPs and donor DNA gave lower HDR efficiencies. At 48 hours post transfection, the genomic locus was PCR-amplified and the editing efficiencies were determined using a GCD assay. […] When the PCR fragments were subjected to restriction digestion with EcoRI to identify properly inserted constructs, only the donor DNA molecules containing 30-base single-stranded overhangs at the 3′ ends produced the expected digested fragments (30-3′ in FIG. 11, panel A). […]
# [2] = tested on: eBFP locus in HEK293 cells expressing eBFP; assay: EcoRI restriction digestion of PCR-amplified eBFP locus (FLAG tag/EcoRI insertion); conditions: FIG. 11A, donor configurations, sequential delivery, 48 hours
# Excerpt: as §1
# To create homologous recombination (HR) assays, a series of gRNAs flanking the insertion site within the EmGFP gene were designed and synthesized (Table 4). Each individual gRNA was combined with GENEART™ […]™ Cas9 Nuclease to form the Cas9 protein/gRNA ribonucleoprotein complexes (Cas9 RNPs). The Cas9 RNPs were then used to transfect cells via NEON® electroporation. The genomic cleavage efficiency was then evaluated using the GENEART® Genomic Cleavage Detection kit at 48 hours post transfection. The gRNAs with highest editing efficiencies and also in close proximity to the insertion site were selected for the subsequent HR assays. For donor design of a single-stranded oligonucleotide, typically the mutation site was positioned at the center flanked by 30 to 50 nucleotides on each side. For asymmetric donor design, 30 nucleotides were placed on either the left or right arm and then 50 or 67 nucleotides on the right or left arm respectively, in both PAM and non-PAM strands. For design of a dsDNA oligonucleotide with single-stranded overhangs, the insertion element was overlapped in the center flanked by various lengths of ssDNA oligonucleotide on each side. By annealing two single-stranded oligonucleotides at 95° C. for 3 minutes, dsDNA donor molecules with either a 5′ protrusion or a 3′ protrusion were generated. To measure homologous recombination efficiency, the donor DNA was either co-transfected with Cas9 RNPs or delivered sequentially into cells via electroporation. At 48 hours post transfection, the gain of EmGFP function in reporter cell lines was determined by flow cytometric analysis with an Attune® NxT Acoustic Focusing Cytometer (Thermo Fisher Scientific). Alternatively, the genomic loci were PCR-amplified using the corresponding primers and then subjected to GENEART® Genomic Cleavage Detection assay or restriction digestion. The resulting PCR products were also subjected to TOPO cloning. Typically, 96 colonies were randomly picked for sequencing. […]
# [3] = tested on: HEK293 cells stably expressing eBFP; assay: HDR assay, conversion of eBFP to GFP by flow cytometry; conditions: oligonucleotide length and modification, sequential delivery, 1 nt substitution, 48 hours
# Excerpt: To generate a HEK293FT stable cell line expressing eBFP, an eBFP ORF was synthesized by GENEART® custom DNA synthesis (Thermo Fisher Scientific) and then cloned into pDONAR221 vector. Using GATEWAY® recombination technology (Thermo Fisher Scientific), the eBFP ORF was transferred to pLenti6.2-DEST Gateway Vector and then verified by sequencing. Lentivirus was generated using VIRAPOWER® kit as described in the manual. To generate stable cell line, HEK293FT cells were transduced with 0.1 MOI of Lentivirus expressing eBFP. Three days post transduction cells were selected on 5 μg/mL Blasticidine antibiotics for 2 weeks. Cells expressing eBFP were then collected and diluted to […] in complete medium and plated into 96 well plates for single cell clone. After 2 weeks clones were isolated and verified for eBFP expression by flow cytometer. In a reporter assay using a stable eBFP-expressing HEK293 cell line, the substitution of C to T in eBFP gene converts His67 to Tyr67, generating a GFP variant (Table 5).
# (§2) To create homologous recombination (HR) assays, a series of gRNAs flanking the insertion site within the EmGFP gene were designed and synthesized (Table 4). Each individual gRNA was combined with GENEART™ […]™ Cas9 Nuclease to form the Cas9 protein/gRNA ribonucleoprotein complexes (Cas9 RNPs). The Cas9 RNPs were then used to transfect cells via NEON® electroporation. The genomic cleavage efficiency was then evaluated using the GENEART® Genomic Cleavage Detection kit at 48 hours post transfection. The gRNAs with highest editing efficiencies and also in close proximity to the insertion site were selected for the subsequent HR assays. For donor design of a single-stranded oligonucleotide, typically the mutation site was positioned at the center flanked by 30 to 50 nucleotides on each side. For asymmetric donor design, 30 nucleotides were placed on either the left or right arm and then 50 or 67 nucleotides on the right or left arm respectively, in both PAM and non-PAM strands. For design of a dsDNA oligonucleotide with single-stranded overhangs, the insertion element was overlapped in the center flanked by various lengths of ssDNA oligonucleotide on each side. By annealing two single-stranded oligonucleotides at 95° C. for 3 minutes, dsDNA donor molecules with either a 5′ protrusion or a 3′ protrusion were generated. To measure homologous recombination efficiency, the donor DNA was either co-transfected with Cas9 RNPs or delivered sequentially into cells via electroporation. At 48 hours post transfection, the gain of EmGFP function in reporter cell lines was determined by flow cytometric analysis with an Attune® NxT Acoustic Focusing Cytometer (Thermo Fisher Scientific). Alternatively, the genomic loci were PCR-amplified using the corresponding primers and then subjected to GENEART® Genomic Cleavage Detection assay or restriction digestion. The resulting PCR products were also subjected to TOPO cloning. Typically, 96 colonies were randomly picked for sequencing. The sequencing data were analyzed using VECTOR NTI ADVANCE® 11.5 software (Thermo Fisher Scientific).
# For each homologous recombination assay, 1.5 μg of Cas9 protein and 360 ng of gRNA were added to Resuspension Buffer R to a final volume of 7 μl, but limiting the total volume of Cas9 protein plus gRNA to less than 1 μl. The gRNA could be diluted in Buffer R if the concentration was too high. Upon mixing, the sample was incubated at room temperature for 5 to 10 minutes to form Cas9 RNPs. Meanwhile, […]™ HEK293 cells expressing either eBFP or disrupted EmGFP were detached from culture flask with TRYPLE™ Express Enzyme and then counted. Aliquots of 1×10^6 cells were washed once with DPBS without Ca^2+ and Mg^2+ and the cell pellets were resuspended in 50 μl of Resuspension Buffer R. A 5 μl aliquot of cell suspension was mixed with 7 μl of Cas9 RNPs. […] The electroporated cells were transferred to 300 μl of […]. […]
# eBFP genomic locus = assay: Sequencing verification of eBFP locus, 1 nt substitution (96 clones); conditions: sequencing of 96 clones; for Relative percentage HDR / Relative percentage NHEJ / Relative percentage wt: 1 nt substitution
# Method: FIG. 8. Effects of oligonucleotide length and modification on HDR. (A) PAM ssDNA (6 nt insertion). […] Various length of PAM ssDNA oligonucleotide was normalized to either equal mass or equal molarity. Samples in the absence of donor (+gRNA) or gRNA (−gRNA) served as controls. The percentages of GFP-positive cells were determined by flow cytometry at 48 hours post transfection. (B) PAM ssDNA (1 nt substitution). […] The percentages of GFP-positive cells were determined by flow cytometry at 48 hours post transfection. (C) Verification by sequencing. The eBFP genomic locus was PCR-amplified, followed by cloning and Sanger sequencing of 96 samples. The relative percentage of wild type (wt), NHEJ, and HDR was plotted. (D) Examples of mutations. Examples of edited clones (not representing the actual percentages of NHEJ and HDR). FIG. 8 discloses SEQ ID NOs: 4-14, respectively, from top to bottom.
# as §2
# It has been reported that relatively short single-stranded oligonucleotides containing 25-61 bases homologous to the target sequence were capable of correcting a single point mutation (Igoucheva, O., Alexeev, V., Yoon, K., Targeted gene correction by small single-stranded oligonucleotides in mammalian cells, Gene Ther. 8(5):391-399 (2001)). […]
# [4] = listed as 80-base modified oligonucleotide
molecule,measurement,setting,value
B1,Avg (% Indels),[1],78.50%
same,Avg (% digestion),[2],0.00%
B2,Avg (% Indels),[1],69.50%
same,Avg (% digestion),[2],0.00%
B3,Avg (% Indels),[1],56.50%
same,Avg (% digestion),[2],0.00%
B4,Avg (% GFP+ cells),[3],44.3%
same,Avg (% GFP+ cells),[3]; [4],approximately 45%
same,overall genome modification efficiency,eBFP genomic locus,~94%
same,Relative percentage HDR,eBFP genomic locus,40.4%
same,Relative percentage NHEJ,eBFP genomic locus,53.8%
same,Relative percentage wt,eBFP genomic locus,5.8%
same,Relative percentage HDR,eBFP genomic locus; [4],Approximately 40%
same,Relative percentage NHEJ,eBFP genomic locus; [4],approximately 54%
same,Relative percentage wt,eBFP genomic locus; [4],approximately 6%
B5,Avg (% Indels),[1],68.50%
same,Avg (% digestion),[2],0.00%
